Measurements reported in paper PMC8810855 (2022).

Key:
[1] = target: T1, Arp2/3 complex (bovine brain) (bovine, UniProt P61157 1-418; A7MB62 1-394; Q58CQ2 1-372; Q3MHR7 1-300; Q3T035 1-178; Q148J6 …); test: ITC; ATP; second, low-affinity site (Kd2)
[2] = target: T1, Arp2/3 complex (bovine brain); test: ITC; ATP; high-affinity site (Kd1)
[3] = target: T1, Arp2/3 complex (bovine brain); test: ITC; ATP

Kd [1] [nM]	Kd [2] [nM]	Kd [3] [nM]	Binder
826	36.7		Hybrid_WH2_C-helix (N-WASP WH2 domain and C-helix with linker and A domain of Arpin) (other) PVSCSGRDALLDQIRQGIQLKSVADGQESTPPTPAPTSGIVGALMEVMQKRSKAIAAAEIREQGDGAEDEEWDD
		1710	SWTDNIMAQKSSKGAAAEIREQGDGAEDEEWDD (domain or fragment) [Arpin_CA (Arpin residues S194-D226)]
